US20200209227A1

Key:
Calmodulin [1] = experiment: BSI, free-solution binding signal
Calmodulin [2] = experiment: BSI, calmodulin-calcineurin assay, free solution
Calmodulin [3] = experiment: BSI; molar refractometry from the experimental phase shift at Bmax
Calmodulin [4] = experiment: BSI; molar refractometry; row repeated for a second PDB structure used in the model
Calmodulin [5] = experiment: BSI, free-solution binding signal; row repeated for a second PDB structure used in the model

BSI ΔRIU (Calmodulin [1]): 0.00049 RIU | FreeSRF (binding) signal ΔRIU (Calmodulin [2]): 0.000441 RIU | Experimental Chi (RIU/M) (Calmodulin [3]): 46100 RIU/M | Experimental Chi (RIU/M) (Calmodulin [4]): 46100 RIU/M | BSI ΔRIU (Calmodulin [5]): 0.00049 RIU
Substance: Calcineurin (enzyme)
